B1: KNL-1^1–505–6xHis Δ9 (domain or fragment)
chain: NSILKVRQAVETIEETVMNSGPSSTTTNRRVSFHNVKHVKQYDRDHGKILDATPVKEKITDTIGSDGILTPRGGNMDISESPACTSSFQVFGGGNLDKTMDMSLETTINENNETARLFETTRDPTLLYEKIVETTTKVTERIVSMPLDDTLAMFNTTNQEDKDMSVDRSVLFTIPKVPKHNATMNRTIPMDLDESKAAGGQCDETMNVFNFTNLEAAEMDTSKLDENNTMNAIRIPINSNVMPVDMDITEHHTLIEEKKNDTFGPSQLMDISAPQVQVNDTLAIFNSPRDICNKGLGVPQNLINIASNVVPVDMDITDQAVLNAEKKNDQFETSQLMDISIPKVLVNDTMAMFNSPKHVSKSSMDLEKTIEAADKSTKYPSIADEVEDLDMDMDITEQQPCEAGNQQNDGLQLQKEDLMDISVIRDSPAVNDTMAVFQSPARVKIGANNSIIDSQKSIVFGDEMSIDETQNDGTLTLPKSNVEVTTTNDVYTSLER

How the values were obtained:
SEC = molecular target: the molecule itself; assay: SEC
[1] = molecular target: T1, KNL-1^1–505–6xHis, wild type (C. elegans, UniProt P34278 1-505); assay: pull-down
T1 sequence: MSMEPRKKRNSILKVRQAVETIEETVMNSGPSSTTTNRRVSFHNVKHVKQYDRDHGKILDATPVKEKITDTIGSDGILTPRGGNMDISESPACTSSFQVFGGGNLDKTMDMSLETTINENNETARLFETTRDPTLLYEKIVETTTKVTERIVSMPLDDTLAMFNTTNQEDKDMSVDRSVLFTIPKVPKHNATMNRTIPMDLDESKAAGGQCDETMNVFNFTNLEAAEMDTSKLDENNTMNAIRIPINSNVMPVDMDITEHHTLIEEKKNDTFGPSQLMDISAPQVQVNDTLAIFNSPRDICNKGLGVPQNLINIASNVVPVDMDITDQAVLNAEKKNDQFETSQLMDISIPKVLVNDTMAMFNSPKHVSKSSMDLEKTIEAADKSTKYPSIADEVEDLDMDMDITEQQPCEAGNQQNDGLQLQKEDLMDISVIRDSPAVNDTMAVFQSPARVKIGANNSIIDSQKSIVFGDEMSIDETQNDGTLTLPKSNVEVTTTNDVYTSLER

KNL-1^1–505–6xHis Δ9 = molecular target: B1; assay: pull-down

Binder: B1
- binding result (SEC): binds

B2: GST–GSP-2 (enzyme)
chain: MDVEKLNLDNIISRLLEVRGSKPGKNVQLTESEIKGLCQKSREIFLSQPILLELEAPLKICGDVHGQYYDLLRLFEYGGFPPESNYLFLGDYVDRGKQSLETICLLLAYKIKYPENFFLLRGNHECASINRIYGFYDECKRRYNIKLWKTFTDCFNCLPVAAIIDEKIFCCHGGLSPDLQSMEQIRRIMRPTDVPDQGLLCDLLWSDPDKDVTGWGENDRGVSFTFGPEVVAKFLHKHDLDLICRAHQVVEDGYEFFAKRQLVTLFSAPNYCGEFDNAGSMMTVDETLMCSFQILKPADKKKYPYGAGGVGSNRPVTPPRNAPAAQPKKGAKK
- binding result [1]: binds
- binding result (KNL-1^1–505–6xHis Δ9): binds
